Reference: publication doi:10.1101/790931
No end group written: not given here.

How the values were obtained:
[1] = target: FITC-labelled P. aeruginosa TolB[22-34] peptide (Pseudomonas aeruginosa); assay: fluorescence polarisation
[2] = target: T1, C-terminal domain of E. coli TolA (E. coli); assay: ITC
T1 sequence (P19934 whole entry, looked up): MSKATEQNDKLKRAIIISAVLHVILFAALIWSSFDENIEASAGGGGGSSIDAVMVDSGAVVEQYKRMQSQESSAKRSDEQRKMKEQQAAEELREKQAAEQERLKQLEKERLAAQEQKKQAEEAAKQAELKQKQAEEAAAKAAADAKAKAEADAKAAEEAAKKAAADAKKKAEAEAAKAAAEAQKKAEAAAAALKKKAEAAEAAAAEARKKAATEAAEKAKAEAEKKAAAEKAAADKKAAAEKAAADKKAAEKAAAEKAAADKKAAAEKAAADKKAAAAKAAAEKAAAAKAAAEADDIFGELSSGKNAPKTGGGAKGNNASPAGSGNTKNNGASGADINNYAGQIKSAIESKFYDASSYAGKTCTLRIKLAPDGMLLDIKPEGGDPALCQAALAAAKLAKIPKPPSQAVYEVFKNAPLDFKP

Chain of P. aeruginosa TolA (residues 224-344) lacking its short C-terminal α-helix (P50600 224-344): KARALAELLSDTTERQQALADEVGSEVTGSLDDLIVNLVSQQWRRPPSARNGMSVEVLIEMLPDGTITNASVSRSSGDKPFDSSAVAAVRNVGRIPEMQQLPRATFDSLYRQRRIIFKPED
Chain of C-terminal domain of Pseudomonas aeruginosa TolA (TolA^224-347) (P50600 224-347): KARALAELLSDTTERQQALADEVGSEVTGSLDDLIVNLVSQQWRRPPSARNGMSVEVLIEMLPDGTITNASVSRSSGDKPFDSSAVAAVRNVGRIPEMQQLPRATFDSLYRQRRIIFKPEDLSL

C-terminal domain of Pseudomonas aeruginosa TolA (TolA^224-347) (from UniProt P50600 224-347) (domain or fragment)
Kd [1]: 250 µM | koff [1]: 0.9 s⁻¹ | kon [1]: 7400 M⁻¹ s⁻¹

P. aeruginosa TolA (residues 224-344) lacking its short C-terminal α-helix (from UniProt P50600 224-344) (domain or fragment)
Kd [1]: 86 µM | koff [1]: 1.4 s⁻¹ | kon [1]: 23800 M⁻¹ s⁻¹

EVRIVIDSGVDS-NH2 [E. coli TolB peptide (residues 22-33)]
Kd [2]: 44 µM | dH [2]: -3.79 kcal/mol | stoichiometry N [2]: 0.56
